According to the supplement of paper PMC10567573:

B1: TNXB (parent)
chain: FSEIRETSAKVNWMPPPSRADSFK

Variants of: B1
Assay: protein stability index of a GFP-peptide fusion (GPS, HEK-293T) (PSI 1-6); higher = more stable
Conditions: c terminus: a fixed tail appended
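Note: lentivirally expressed fusions sorted by FACS into six bins by GFP to DsRed ratio, PSI derived from sequencing read proportions per bin multiplied by bin number.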

| Variant | protein stability index |
| --- | --- |
| FSEIRETSAKVNWMPPQSRADSFK [P17Q] | 3.24 |
| FSEIRETSAKVNWMPPCSRADSFK [P17C] | 2.81 |
| FSEIRETSAKVNWMPPWSRADSFK [P17W] | 2.79 |
| FSEIRETSAKVNWMPPSSRADSFK [P17S] | 3.44 |
| FSEIRETSAKVNWMPPYSRADSFK [P17Y] | 2.67 |
| FSEIRETSAKVNWMPPTSRADSFK [P17T] | 3.99 |
| FSEIIETSAKVNWMPPPSRADSFK [R5I] | 3.4 |
| FSEIEETSAKVNWMPPPSRADSFK [R5E] | 4.23 |
| FSEICETSAKVNWMPPPSRADSFK [R5C] | 2.83 |
| FSEISETSAKVNWMPPPSRADSFK [R5S] | 4.02 |
| FSEIDETSAKVNWMPPPSRADSFK [R5D] | 3.97 |
| FSEIHETSAKVNWMPPPSRADSFK [R5H] | 3.79 |
| FSEIMETSAKVNWMPPPSRADSFK [R5M] | 3.48 |
| FSEIRETSAKVNWMPPPSRADSRK [F23R] | 4.44 |
| FSEIRETSAKVNWMPPPSRADSNK [F23N] | 4.1 |
| FSEIRETSAKVNWMPPPSRADSMK [F23M] | 3.82 |
| FSEIRETSAKVNWMPPPSRADSEK [F23E] | 4.33 |
| FSEIRETSAKVNWMPPPSRADSVK [F23V] | 4.07 |
| FSEIRETSAKVNWMPPPSRADSYK [F23Y] | 3.09 |
| FSEIRETSAKVNWMPPPSRADSLK [F23L] | 3.91 |
| FSEIRETSAKVNWMPPPSRADSKK [F23K] | 4.12 |
| FSEIRETSAKVNWMPPPSRADSTK [F23T] | 4.06 |
| FSEIRETSARVNWMPPPSRADSFK [K10R] | 3.67 |
| FSEIRETSAYVNWMPPPSRADSFK [K10Y] | 2.72 |

| Variant | protein stability index |
| --- | --- |
| FSEIRETSALVNWMPPPSRADSFK [K10L] | 3.29 |
| FSEIRETSAWVNWMPPPSRADSFK [K10W] | 1.66 |
| FSEIRETSAFVNWMPPPSRADSFK [K10F] | 2.09 |
| FSEIRETSADVNWMPPPSRADSFK [K10D] | 4.01 |
| FSEIRETSATVNWMPPPSRADSFK [K10T] | 3.96 |
| FSEIRETSAIVNWMPPPSRADSFK [K10I] | 3.06 |
| FSEIRETSAKTNWMPPPSRADSFK [V11T] | 3.72 |
| FSEIRETSAKYNWMPPPSRADSFK [V11Y] | 2.7 |
| FSEIRETSAKQNWMPPPSRADSFK [V11Q] | 3.65 |
| FSEIRETSAKHNWMPPPSRADSFK [V11H] | 3.5 |
| FSEIRETSAKWNWMPPPSRADSFK [V11W] | 2.73 |
| VSEIRETSAKVNWMPPPSRADSFK [F1V] | 4.19 |
| LSEIRETSAKVNWMPPPSRADSFK [F1L] | 4.02 |
| TSEIRETSAKVNWMPPPSRADSFK [F1T] | 4.07 |
| ESEIRETSAKVNWMPPPSRADSFK [F1E] | 4.45 |
| QSEIRETSAKVNWMPPPSRADSFK [F1Q] | 4.48 |
| YSEIRETSAKVNWMPPPSRADSFK [F1Y] | 3.98 |
| RSEIRETSAKVNWMPPPSRADSFK [F1R] | 4.99 |
| FSEIRETSAKVNWMPPPYRADSFK [S18Y] | 3.5 |
| FSEIRETSAKVNWMPPPFRADSFK [S18F] | 2.71 |
| FSEIRETSAKVNWMPPPQRADSFK [S18Q] | 3.64 |
| FSEIRETSAKVNWMPPPWRADSFK [S18W] | 1.98 |
| FSEIRETSAKVNWMPPPHRADSFK [S18H] | 3.3 |
| FSEIRETSAKVNWMPPPERADSFK [S18E] | 3.67 |

| Variant | protein stability index |
| --- | --- |
| FSEIRETSAKVNWMPPPMRADSFK [S18M] | 2.89 |
| FSEIRETSAKVNWMPPPDRADSFK [S18D] | 3.52 |
| FSEIRETSAKVNWMPPPRRADSFK [S18R] | 3.43 |
| FSEIRETSAKVNWMPPPVRADSFK [S18V] | 3.32 |
| FSEIRETSVKVNWMPPPSRADSFK [A9V] | 2.35 |
| FSEIRETSNKVNWMPPPSRADSFK [A9N] | 2.95 |
| FSEIRETSSKVNWMPPPSRADSFK [A9S] | 3.75 |
| FSEIRETSFKVNWMPPPSRADSFK [A9F] | 2.2 |
| FSEIRETSRKVNWMPPPSRADSFK [A9R] | 3.29 |
| FSEIRETSGKVNWMPPPSRADSFK [A9G] | 3.04 |
| FSEIRETSLKVNWMPPPSRADSFK [A9L] | 3.41 |
| FSEIRETSAKVNWMPPPSRAWSFK [D21W] | 2.45 |
| FSEIRETSAKVNWMPPPSRAVSFK [D21V] | 3.28 |
| FSEIRETSAKVNWMPPPSRAYSFK [D21Y] | 3.01 |
| FSEIRETSAKVNWMPPPSRAGSFK [D21G] | 3.52 |
| FSEIRETSAKVNWMPPPSRALSFK [D21L] | 3.06 |
| FSEIRETSAKVNWMPPPSRATSFK [D21T] | 2.6 |
| FSEIRETSAKVNWMPPPSRAFSFK [D21F] | 2.02 |
| FSEIRETSAKVNWMPPPSRAISFK [D21I] | 3.05 |
| FSEIRETSAKVNWMPPPSRAESFK [D21E] | 3.79 |
| FSEIRVTSAKVNWMPPPSRADSFK [E6V] | 2.84 |
| FSEIRMTSAKVNWMPPPSRADSFK [E6M] | 2.34 |
| FSEIRDTSAKVNWMPPPSRADSFK [E6D] | 3.28 |
| FSEIRWTSAKVNWMPPPSRADSFK [E6W] | 2 |

| Variant | protein stability index |
| --- | --- |
| FSEIRRTSAKVNWMPPPSRADSFK [E6R] | 2.89 |
| FSEIRKTSAKVNWMPPPSRADSFK [E6K] | 3 |
| FSEIRYTSAKVNWMPPPSRADSFK [E6Y] | 2.87 |
| FSEIRPTSAKVNWMPPPSRADSFK [E6P] | 3.21 |
| FSEIRETSAKVNWMPQPSRADSFK [P16Q] | 3.23 |
| FSEIRETSAKVNWMPCPSRADSFK [P16C] | 3.14 |
| FSEIRETSAKVNWMPVPSRADSFK [P16V] | 3.41 |
| FSEIRETSAKVNWMPLPSRADSFK [P16L] | 3.02 |
| FSEIRETSAKVNWMPTPSRADSFK [P16T] | 3.27 |
| FSEIRETSAKVNWMPEPSRADSFK [P16E] | 3.52 |
| FSEIRETSAKVNWMPAPSRADSFK [P16A] | 3.05 |
| FSEIRETSAKVNWMPSPSRADSFK [P16S] | 3.69 |
| FSEIRETSAKVNWHPPPSRADSFK [M14H] | 3.44 |
| FSEIRETSAKVNWFPPPSRADSFK [M14F] | 3.13 |
| FSEIRETSAKVNWEPPPSRADSFK [M14E] | 4.11 |
| FSEIRETSAKVNWCPPPSRADSFK [M14C] | 2.63 |
| FSEIRETSAKVNWIPPPSRADSFK [M14I] | 3.11 |
| FSEIRETSAKVNWQPPPSRADSFK [M14Q] | 3.92 |
| FSEIRETSAKVNWNPPPSRADSFK [M14N] | 3.4 |
| FSEIRETSAKVNWLPPPSRADSFK [M14L] | 3.31 |
| FSEIRETSAKVNWSPPPSRADSFK [M14S] | 3.92 |
| FSEIRETSAKVNWKPPPSRADSFK [M14K] | 3.52 |
